Results: paper PMC2529310, “An amphioxus orthologue of the estrogen receptor that does not bind estradiol: Insights into estrogen receptor evolution”

Target: T1, amphioxus ER (amphiER) (Branchiostoma floridae, UniProt B3V8B7 1-705)
T1 sequence: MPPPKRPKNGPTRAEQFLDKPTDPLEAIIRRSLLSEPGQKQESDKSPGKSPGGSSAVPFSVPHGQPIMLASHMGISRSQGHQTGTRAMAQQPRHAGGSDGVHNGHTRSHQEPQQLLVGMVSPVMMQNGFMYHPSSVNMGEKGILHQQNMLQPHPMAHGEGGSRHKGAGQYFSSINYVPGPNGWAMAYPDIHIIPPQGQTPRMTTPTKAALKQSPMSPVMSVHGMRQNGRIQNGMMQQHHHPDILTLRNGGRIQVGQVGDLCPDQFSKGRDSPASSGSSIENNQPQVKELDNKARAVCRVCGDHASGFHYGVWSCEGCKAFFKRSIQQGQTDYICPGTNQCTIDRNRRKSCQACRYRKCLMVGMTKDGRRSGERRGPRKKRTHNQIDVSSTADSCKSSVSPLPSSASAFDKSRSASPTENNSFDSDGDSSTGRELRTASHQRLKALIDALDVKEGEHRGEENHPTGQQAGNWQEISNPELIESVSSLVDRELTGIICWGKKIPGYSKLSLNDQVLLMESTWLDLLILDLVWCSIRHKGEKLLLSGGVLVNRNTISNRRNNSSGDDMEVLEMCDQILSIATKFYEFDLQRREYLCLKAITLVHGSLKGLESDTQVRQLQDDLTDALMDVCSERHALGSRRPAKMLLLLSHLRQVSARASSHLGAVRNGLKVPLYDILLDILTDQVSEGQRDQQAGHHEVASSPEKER
Assay: EMSA; EMSA as previously described (ref 93); buffer, salt, pH and temperature not given; in vitro translated proteins in reticulocyte lysate; 10- and 100-fold molar excess of competitors
Settings: protein: ivt; chain copies: 2; label: 32P; blunt (only one strand printed; 30 bp stated; strand is nearly self-complementary)

B1: consensus ERE (dsDNA)
DNA 1: CGGGCCGAGGTCACAGTGACCTCGGCCCGT
DNA 2: ACGGGCCGAGGTCACTGTGACCTCGGCCCG
- binding result: binds
